Measured values from US20120308554A1, “VEGF-D/VEGFR2/3-MEDIATED REGULATION OF DENDRITES” (UNIVERSITAT HEIDELBERG, priority 2011, published 2012).

Tested on: VEGFD
Assay: qRT-PCR analysis of VEGFD expression in hippocampal neurons
Format: cell-based, mice
Settings: hippocampal neurons infected with rAAV
Procedure: Total RNA was isolated at DIV10 to DIV13 from hippocampal primary neuron cultures or isolated brain tissues with Rneasy Mini Kit (Qiagen, Hilden, Germany) including an optional Dnase I treatment at room temperature for 15 min according to manufacturer's instructions (Qiagen). 1.2 μg of extracted RNA was reverse transcribed into first strand cDNA using High Capacity cDNA Reverse Transcription kit (Applied Biosystems, Foster City, Calif.).
Quantitative reverse transcriptase PCR (qRT-PCR) was done on an ABI7300 thermal cycler using Universal qRT-PCR master mix with TaqMan Gene Expression Assays for the indicated genes (Applied Biosystems). The following TaqMan Gene Expression Assays were used in this study: Gusb (Mm00446953_m1), cFos (Mm00487425_m1), VEGFD (Mm00438965_m1), VEGFC (Mm01202432_m1), VEGF (Mm01281449_m1), VEGFR3 (Mm01292618_m1), beta-actin (Mm00607939_s1), beta-2 microglobulin (Mm00437762_m1), CBP (Mm01342435_m1), p38 MAPK alpha (Mm00442497_m1), p38 MAPK beta (Mm00440955_m1). Expression of target genes was normalized against the expression of Gusb as endogenous control gene. Data were derived from at least 5 independent experiments.

B1: CaMKIVK75E: dominant negative mutant of CaMKIV (protein, UniProt P08414 1-469, looked up, variant K75E)
Calcium/calmodulin-dependent …: MLKVTVPSCPSSPCSSVTASTENLVPDYWIDGSNRDPLGDFFEVESELGRGATSIVYRCKQKGTQKPYALKVLKETVDKKIVRTEIGVLLRLSHPNIIKLKEIFETPTEISLVLELVTGGELFDRIVEKGYYSERDARDAVKQILEAVAYLHENGIVHRDLKPENLLYATPAPDAPLKIADFGLSKIVEHQVLMKTVCGTPGYCAPEILRGCAYGPEVDMWSVGIITYILLCGFEPFYDERGDQFMFRRILNCEYYFISPWWDEVSLNAKDLVKKLIVLDPKKRLTTFQALQHPWVTGKAANFVHMDTAQKKLQEFNARRKLKAAVKAVVASSRLGSASSSHTSIQENHKASSDPPSTQDAKDSTDLLGKKMQEEDQEEDQVEAEASADEMRKLQSEEVEKDAGVKEEETSSMVPQDPEDELETDDPEMKRDSEEKLKSVEEEMDPMTEEEAPDAGLGVPQQDAIQPEY
VEGFD mRNA levels: significantly lower
